The results in this text go back to the nanobody polyreactivity screen of Harvey et al. (2022).

The data set in a line: yeast display, Sf9 membrane polyspecificity reagent, FACS + sequencing; frameworks hold sequencing errors. An outline of the steps: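 Nanobodies from a synthetic yeast display library (Saccharomyces cerevisiae BJ5465), induced 36–48 hours with galactose, were stained 1 hour at 4 °C with 10% biotinylated, detergent-solubilized Sf9 membrane reagent, enriched on streptavidin microbeads, then FACS-sorted. Anti-HA (expression) and streptavidin (reagent binding) fluorescence set low and high (top ~1%) gates. Polyreactivity labels come from the gate of origin. Genes were colony-PCR amplified, MiSeq 2 × 250 sequenced and filtered by CDR length.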
As to “QVHLVESGGGLVQAGGSLRLSCAASGRTFRYYAMGWYRQAPGKERELVASISSTGGNTYYADSVKGRFTISRDNAKNTVYLQMNSLKPEDTAVYYCAAGAWTRGQYYYWGQGTQVTVSS”, the “polyreactivity (PSR sort gate)” value was “high polyreactivity”.

“QVQLVESGVGLVQAGGSLRLICAASGRTFAYYAMGWYRQAPGKERELVAAISSGGRTNYADSVKGRFTISRDNAKNTVYLQMNSLKPEDTAVYYCARKASYQIYNGQYGGFGYGYWGQGTQVTVSS”: the “polyreactivity (PSR sort gate)” value is “high polyreactivity”.

As for “QVQLVESGGGLVQAGGSLRLSCAASGSTFYYNAMGWYRQAPGKERELVAAITFTGGSTYADSVKGRFTISRDNAKNTVYLQMNSLKPEDTAVYYCAATIQGHDYLGTGYDYWGQGTQVTVSS”, the “polyreactivity (PSR sort gate)” value is “low polyreactivity”.

“QVQLVESGGGLVQAGGSLRLSCAASGSTIGYYARGWSRQAPGKERELVARIRSTGVSTFYADSVKGRFTISRDNAKNTVYLQMNSLKPEDTAVYYCAAPVSSLGWKHRQYTTWYEYWGQGTQVTVSS”: the “polyreactivity (PSR sort gate)” value was “high polyreactivity”.

With “QVQLVESGGGLVQAGGSLRLSCAASGSIFPGNAMGWYRQEPRKERELVAAITKGDGSTNYADSVKGRFTISRDNAKNTVYLQLNSLITEDTAVYYCADRSRVFGYQGYDYWGQGTQVTVSS”, the “polyreactivity (PSR sort gate)” value is reported as “low polyreactivity”.

On to “QVQLVESGGGLVQAGGSLRLSCAASGFTFWRYAMGWYRQAPGKERELVAVITRRGGSTYYADSVKGRFTISRDNAKNTVYLQMNSLKPEDTAVYYCAAGPVSQQHSPGPHDYWGQGTQVTVSS”, for which the “polyreactivity (PSR sort gate)” value is given as “high polyreactivity”.

In the case of “QVQLVESGGGLVQAGGSLRLRCAASGSIFRVYAMGWYRQAPGKERELVATITWNGGSTYYADSVKGRFTISRDNAKNTVYLQMNSLKPEDTAVFYCAKPSSWRRVLPIDYWGQGTQVTVSS”, the “polyreactivity (PSR sort gate)” value is recorded as “low polyreactivity”.

Take “QVQLVESGGGIVQAGGSLRLSCAASGFIFRYYAMGWYRHAPGKESELVATITRSGGSTYYADSVKGRFTISRDNAKNTVYLQMNSLKPEDTAVYYCAADIYWYRGYGYWGQGTQVTVSS”: the “polyreactivity (PSR sort gate)” value is “high polyreactivity”.

Regarding “QVQLVESGGGLVQAGGSLRLSCAASGFIFKYYTMGWYRPAPGNERELVAAISKNAGSTYYADSVKGRFTISRDNAKNTVYLQMNSLKPEDTAVYYCARTYSTWYYYWGQGTQVTVSS”, the “polyreactivity (PSR sort gate)” value is recorded as “high polyreactivity”.

For the sequence “QVQLVESGGGLVQAGGSLRFSCAASGSTFTTNVMGWYRQAPGKERELVAAISHRGGSTYYADSVKGRFTMSRDNAKNTVYLQMNSLKPEDTAVYYCAAPGWERYGYWGQGTQVTVSS”, the “polyreactivity (PSR sort gate)” value was “low polyreactivity”.

Regarding “QVQLVESGGGLVQAGGSLRLSCAASGRIFLKYTMGLYRQAPGKERELVAAISRGGSTYYADSVKGRFTISRDNAKNTVYLQMNRLKPEDTAVYYCAATSYRRTGYNYWGQGTQVTVSS”, the “polyreactivity (PSR sort gate)” value was “high polyreactivity”.

As to “QVQLVESGGGLVQAGGSLRLRCAASGRIFDWYALGWNRQAPGQERELVAAITSGGSTYYADSVKGRFTISRDNAKNTVYLQMNSLKTEDTAVYYCAADLYYWGDSDYWGQGTQVTVSS”, the “polyreactivity (PSR sort gate)” value is recorded as “low polyreactivity”.

Turning to “QVQLVESGGGLVQAGGSLRLSCAASGRIRYAMGWYRQAPGKERELVAGITWSGGRTYYADSVKGRFTISRDNAKNTVYLQMNSLKPEDTAVYYCAAATPYRYNYWGQGTQVTVSA”, the “polyreactivity (PSR sort gate)” value is reported as “high polyreactivity”.

“QVQIVESGGGLDQAGGSLRLSCAASGSTFVLNPMGWYRQAPGKERGMVAAISSGGRTYYADSVKGRFTISRDNAKNTVYLQMNSLKPEDTAVYYCAANPYRGGHGTLFGYWGQGSQVTVSS”: the “polyreactivity (PSR sort gate)” value is on record as “high polyreactivity”.

Consider “QVQLVESGGGLVQAGGSLRLSCAASGRIFGLYAMGWYRQAPGKERELVAAISRGGGSTYYADSVKGRFTISRDNAKNTVYLQMNSLKPEDTAVYYCATGLGYFSRLDYWGQGTLVTVSS”, for which the “polyreactivity (PSR sort gate)” value is “low polyreactivity”.

Take “QVQLVESGGGLVQAGGSLRLSCAASGRISRRYAMGWYRQAPGKERELVAAITSGGRTYYADSVKGRFTISRDNAKNTVYLQMNSLKPEDTAVYYCAAAGYLPSTYWGQGTQVTVSS”: the “polyreactivity (PSR sort gate)” value is “high polyreactivity”.

For “QVQLVESGGGLVQAGGSLRLSCAASGSIFGPYVKGWYRQAPGTERELVASITSSGGSTYYADTVKGRFTISRDNAKNTVYIQMNSLKPEDTAVYYCNAVRFTPTNSHRYYWGQGTQVTVSS”, the “polyreactivity (PSR sort gate)” value is recorded as “high polyreactivity”.

As for “QVQLVESGGGLVQAGGSLRLSCAASGFTFKRYAMGWFRQAPGKERELVSTITSRGGSTYYADSVKGRFTISRDNAKNTVYLQMNSLKPEDTAVYYCVRRYPGLPGWSSYGSYESGYWGQGSQVTVSS”, the “polyreactivity (PSR sort gate)” value was “high polyreactivity”.

With “QVQLVESGGGLVQAGGSLRLSCAASGFTFVKYAMGWYRQAPGKVRELVASISSGGSTYYADSVKGRFTISRDNAKNTVYLQMNSLKPEDTAVYYCNKSPGYGRYSRRYDSWGQGTQVTVSS”, the “polyreactivity (PSR sort gate)” value is on record as “high polyreactivity”.

As to “QVQLVESGGGLVQAGGSLRLSCAASGSTFIWYAMGWYRQAPGKERELVAAINRSGGSTYYADSVKGRFTISRDNAKNTVYLQMNSLKPEDTAVYYCAAQGGGYRGLKYYYWGQGTQVTVSS”, the “polyreactivity (PSR sort gate)” value was “high polyreactivity”.

Consider “QVQLVESGGGLVQAGGSLRLSCAASGRTSDVYAMGWYRQAPGKERALVAAISSGGSTSYADSVKGRFTISRDNAKNTVNLQMNSLKPEDTAVYYCAADSSGQSRFGYWGQGTQVTVSS”, for which the “polyreactivity (PSR sort gate)” value is listed as “low polyreactivity”.

On to “QVQLVESVGGLVQAGGSLRLSCAASGSILQHYAMGWYRQAPGKETELVASISWTGGSTYYADSVKGRFTISRDNAKNTVYLQMNCLKPEDTAVYYCAARRYRYYSRGSWGQGTQVTVSS”, for which the “polyreactivity (PSR sort gate)” value was “high polyreactivity”.

As for “QDQLVESAGGLVQAGGSLRLSCAASGRIFKSYAMGWYRQAPGKERELVASTSYTGGSTYYADSVKGRFTISRDNAKNTVYIQRNSLKPDETAVYYCAPKRVRSAGSYGYWGQGTQVTVSS”, the “polyreactivity (PSR sort gate)” value was “low polyreactivity”.

“QVQLVESGGGLVQAGGSLRLSCAASGSTFQYYAMGWYRQAPGKERELVAAISSGGSTYYADSVKGRFTISRDNAKNTVYLQMNSLKPEDTAVYYCAADFVKRQANRQFDYWGQGTQVTVSS”: the “polyreactivity (PSR sort gate)” value is “high polyreactivity”.

As for “HVQLVESGVGFVQAGGSLRLSCASSGSIFQAYAMGWYRQAPGNERELVAAISDSGGSTYYADSVKGRFTISRDNAKNTVYLQMNSLKPEDTEVYYCAADVYTRFWRVYRVDYWGQGTQVTVSS”, the “polyreactivity (PSR sort gate)” value is “low polyreactivity”.

On to “QVQLVESGGRLVQAGGSLRLRCAASGSIFGGYTMGRSRQAPGKERELVAAISRRGGNTYYADSVKGRFTISRDNAKNTVYLQMNSLKPEDTAVYYGAVRWPSARIPVKLDYWGQGTQVSVSS”, for which the “polyreactivity (PSR sort gate)” value is reported as “high polyreactivity”.

“QGQPVESGGGLVQAGGSLRLSCAASGLIFRWYAMGWNRQAPVQEREVVAAISWSGASTYYADSVKGRFTISRDTPKNTVYLQMNSLKPDDTAVYYCAADYGYYGAGSYFDRGDYWGQGTQVTVSS”: the “polyreactivity (PSR sort gate)” value is “high polyreactivity”.

Regarding “KVQLVESGGGLVQAGGSLRLSCAPSGSIFPLNARGWYSQAPGKERELVAAISESGGRTYYADSVKGRFTISRDNAKNTVYLQMNSLNPADTAVYHCATVRLARKSAPYDYWGQGTQVTVSS”, the “polyreactivity (PSR sort gate)” value is reported as “high polyreactivity”.

Consider “QVQLVESGGGLVQAGGSLRLSCAASGSTFYGYVMGWYRQAPGKERELVAGITRGGSTNYADSVKGRFTISRDNAKNTVYLQMNSLKPEDTAVYYCATRYFSRYYYWGQGTQVTVSS”, for which the “polyreactivity (PSR sort gate)” value is “high polyreactivity”.

Regarding “QVQLVESGVGLVQAGGSLRLSCAASGSTFLTNAMGWNRQAPGKERELVAAINWRGDSTYYADSVKGRFTISRDNAKNTVYLQMNSLKPEDTAVYYCAAKYNHVTDEYDYWGQGTQVTVSS”, the “polyreactivity (PSR sort gate)” value was “high polyreactivity”.

Turning to “QVQLVESGGGLVQAGGSLLLSCAASGIIFSEYDMGWYRQAPGKESELVAAISKSGGRTYYADSVKVRFTISRDNAKNTGFLQMNSLKQEDTAVYYCAAGGRFRFTQYYKHYYWGQGTQVNVSS”, the “polyreactivity (PSR sort gate)” value was “high polyreactivity”.

For “QVQLVESGGGLVQAGGSLRLSCDASGLTFTRNAMGWYRPAPGKERELVAAITSTGSTNYADSVKGRFTISRDNAKNTVYLQMNSLKPEDTAVYYCNARNAYYDDNYWGQGTQVTVSS”, the “polyreactivity (PSR sort gate)” value is reported as “low polyreactivity”.

“QVQLVESGGGLVQAGGSLRLSCAASGGTFRYYTMGWYRQAPGKERELVASISGGGRTYYADSVKGRFTISRDNAKITVYLQMNSLKPEDTAVYYCNARNRVYYTLSGYGYWGQGTQVTVSS”: the “polyreactivity (PSR sort gate)” value is on record as “high polyreactivity”.

On to “QVQLVESGGGLVQAGGSLRLSCAASGRTFTYNTMGWYRQAPGKERELVAAISSSGGSTYYADSVKGRFTISRDNAKNSVYLQMNSLKPEDTAVYYCAKRYFSSSRYYYWGQGTQVTVSS”, for which the “polyreactivity (PSR sort gate)” value is reported as “high polyreactivity”.

For “QVQLVESGGGLVQAGGSLRLSCAASGSISRVYTMGWYRQAPGKQRELVAVIRRSSGSTYYADSLKGRFTISRDNAKNTVYFQMNSLKPEDTAVYYCAARGYYSGQTTIGMDYWGQGTQVTVSS”, the “polyreactivity (PSR sort gate)” value is on record as “low polyreactivity”.

For the sequence “QVQLVESGGGLVQAGGSLRLSCAASGSTFCHYAMGWYRQAPGKERELVAAISWSGGSTSYADSVKGRFTISRDNAKNTVFLQMNSLIPEDTAVYYCNKRQEWFHFPYTRGYYWGQGTQVSVSS”, the “polyreactivity (PSR sort gate)” value is recorded as “low polyreactivity”.

With “QVQLVETGGGLVQAGGSLRLSCAASGITFVKYAMGWYRQAPGKERELVAAISGSGGSTSYADSVKGRFTISRDNAKNTVYLQMNSLKPEDTAVYYCNKAIVRYPKTRDYWGQGTQVTVSS”, the “polyreactivity (PSR sort gate)” value is “low polyreactivity”.

“QVQLVESGRGLVQAGGSLRLSCAASGSIFGRNAMGWYRQAPGKERELVAAITWRGGRTYYADSVKGRFTISRDNAKNTVYLQMNSLKPEDTAVYYCAAVVAYQYTGYRFDYWGQGTQVTVSS”: the “polyreactivity (PSR sort gate)” value is “high polyreactivity”.

Turning to “QVQLVESGGGLVQAGGSLRLSCAASGSIFAKNAMGWYRQAPGKERELVAAISRGGNSYYADSVKGRFTISRDNAKNPVYFPMNSLTPEDTAVYYCAADYYWYVWEYPTYWYEYWGQGTQVTVSS”, the “polyreactivity (PSR sort gate)” value is “high polyreactivity”.

Consider “QVQLVESGGGLVQAGGSLRLSCAASGRIFADYGMGWYRQAPGKERELVAAITDRGGTTYYADSVKGRFTISRDNAKNTVYLQMNSLKPEDTAVYYCAADTPDAPDYSGFYYWGQGTQVTVSS”, for which the “polyreactivity (PSR sort gate)” value is recorded as “low polyreactivity”.

For “QVQLVESGGGLVQAGGSLRLRCAASGGIFGLYTMGWYRPAPGKERELVAGISKRGTRTRYADSVKGRFTISRDNAKNTVYIQMTSLKPEDTAVYYCNADYYVSKLDYWGQGTQVTVSS”, the “polyreactivity (PSR sort gate)” value is on record as “high polyreactivity”.
